Source: patent publication CN116731161A (UNIV NANKAI, dated 2023)

Target: T1, FcγRI (UniProt P12314 16-288)
T1 construct: also called CD64
Assay: SPR (Biacore T200), His-tagged target captured on anti-His chip, antibody as analyte

T1 sequence (P12314 16-288 limits assumed): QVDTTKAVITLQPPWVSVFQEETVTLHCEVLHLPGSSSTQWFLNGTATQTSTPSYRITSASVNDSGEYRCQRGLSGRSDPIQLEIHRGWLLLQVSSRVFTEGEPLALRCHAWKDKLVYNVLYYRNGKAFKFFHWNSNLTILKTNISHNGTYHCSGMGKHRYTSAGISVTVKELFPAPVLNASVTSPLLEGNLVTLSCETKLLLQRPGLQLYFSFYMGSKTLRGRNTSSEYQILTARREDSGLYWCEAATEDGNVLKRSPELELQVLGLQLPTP

B1: X构型Rituximab抗体 (antibody, human IgG1, kappa)
heavy: not shown
light: QIVLSQSPAILSASPGEKVTMTCRASSSVSYIHWFQQKPGSSPKPWIYATSNLASGVPVRFSGSGSGTSYSLTISRVEAEDAATYYCQQWTSNPPTFGGGTKLEIKRTVAAPSVFIFPPSDEQLKSGTASVVCLLNNFYPREAKVQWKVDNALQSGNSQESVTEQDSKDSTYSLSSTLTLSKADYEKHKVYACEVTHQGLSSPVTKSFNRGECGGGGSGGGGSGGGGSGGGGSGGGGSGGGGSVPPPPPCCHPRLSLHRPALEDLLLGSEANLTCTLTGLRDASGVTFTWTPSSGKSAVQGPPERDLCGCYSVSSVLPGCAEPWNHGKTFTCTAAYPESKTPLTATLSKSGNTFRPEVHLLPPPSEELALNELVTLTCLARGFSPKDVLVRWLQGSQELPREKYLTWASRQEPSQGTTTFAVTSILRVAAEDWKKGDTFSCMVGHEALPLAFTQKTIDRLAGK
notes: also called X构型抗体; Rituximab X-body
binding result: binds
